Experimental findings from PMC2583361 (Critical reviews in biochemistry and molecular biology, 2008) are described below.

What all share (assay): ITC
(In ITC the heat of successive injections is recorded.)

The target of assay [1] is T1, Escherichia coli single-stranded DNA binding protein (SSB) (E. coli, UniProt P0AGE0 1-178).
Assay [2] concerns the target T1, Escherichia coli single-stranded DNA …. This is another data set of the same source.
Assay [3] shares this target. The source holds these as a separate data set.
The target is the same in assay [4]. The source holds these as a separate data set.

Where two headings read alike, the source gives them in different places.

Usually stoichiometry N stands for the number of molecules, sites or subunits per partner or assembly.

T1 sequence (P0AGE0 whole entry): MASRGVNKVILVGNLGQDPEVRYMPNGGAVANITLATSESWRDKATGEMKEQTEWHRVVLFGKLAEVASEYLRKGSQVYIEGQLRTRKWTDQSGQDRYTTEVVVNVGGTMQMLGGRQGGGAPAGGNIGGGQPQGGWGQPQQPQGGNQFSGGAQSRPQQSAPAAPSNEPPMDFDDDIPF

B1: PriA DNA helicase (enzyme, E. coli, UniProt P17888 1-732, looked up)
chain: MPVAHVALPVPLPRTFDYLLPEGMTVKAGCRVRVPFGKQQERIGIVVSVSDASELPLNELKAVVEVLDSEPVFTHSVWRLLLWAADYYHHPIGDVLFHALPILLRQGRPAANAPMWYWFATEQGQAVDLNSLKRSPKQQQALAALRQGKIWRDQVATLEFNDAALQALRKKGLCDLASETPEFSDWRTNYAVSGERLRLNTEQATAVGAIHSAADTFSAWLLAGVTGSGKTEVYLSVLENVLAQGKQALVMVPEIGLTPQTIARFRERFNAPVEVLHSGLNDSERLSAWLKAKNGEAAIVIGTRSALFTPFKNLGVIVIDEEHDSSYKQQEGWRYHARDLAVYRAHSEQIPIILGSATPALETLCNVQQKKYRLLRLTRRAGNARPAIQHVLDLKGQKVQAGLAPALITRMRQHLQADNQVILFLNRRGFAPALLCHDCGWIAECPRCDHYYTLHQAQHHLRCHHCDSQRPVPRQCPSCGSTHLVPVGLGTEQLEQTLAPLFPGVPISRIDRDTTSRKGALEQQLAEVHRGGARILIGTQMLAKGHHFPDVTLVALLDVDGALFSADFRSAERFAQLYTQVAGRAGRAGKQGEVVLQTHHPEHPLLQTLLYKGYDAFAEQALAERRMMQLPPWTSHVIVRAEDHNNQHAPLFLQQLRNLILSSPLADEKLWVLGPVPALAPKRGGRWRWQILLQHPSRVRLQHIINGTLALINTIPDSRKVKWVLDVDPIEG
As to B1, the dH in assay [1] is -28 kcal/mol; in assay [2], -5.1 kcal/mol; in assay [3], -28.7 kcal/mol; in assay [4] it was -6.8 kcal/mol. The “stoichiometry N” value in assay [1] was 1.7; in assay [2], 3.7; in assay [3], 5.2; in assay [4], 4.6.
